In one data set the target is T1, Aβ (Homo sapiens, UniProt P05067).
T1 construct: purchased Anaspec Inc
The data set can be described thus: TEM imaging of Aβ with FapC species or bLgS. As to conditions: 12 h incubation, uranyl acetate negative stain. On the procedure:
Aβ incubated in the presence or absence of FapCS, FapC monomers, FapC fibrils or bLgS were subjected to TEM imaging. After incubation for 12 h, a drop of sample was applied on a glow‐discharged carbon‐coated copper grid. After 1 min, the sample was blotted and then negatively stained with uranyl acetate (1%) for 30 s. The dried grid was then imaged with a Technei F20 TEM at 200 kV. For AFM, a drop of sample was placed on freshly cleaved mica surface and rinsed with water after 2 min and dried with pressurized air. The sample was scanned with an AFM (Nanoscope VIII Multimode Scanning Force Microscopes, Bruker), covered with an acoustic hood to minimize the vibrational noise. Images were acquired under the tapping mode with a silicon nitride cantilever (Bruker). AFM images were processed with Nanoscope Analysis 1.5 software to flatten the background and to calculate the statistical parameters.

Data set [1] relates to zebrafish larvae. The data set can be described thus: Congo red imaging of Aβ fibrillization in zebrafish larval brain. Format: in vivo, zebrafish (AB, Danio rerio). As to conditions: for Congo red fluorescence / Aβ fibrillization in larval brain (in words): 2 d postinjection. On the procedure:
(§1) Aβ (HFIP‐treated) was dissolved in PBS (pH 7.4) to make a stock solution. Aβ (100 × 10^−15 M) was injected into the cerebroventricular space of one week old zebrafish larvae. Aβ with FapCS was injected at a 10:1 molar ratio (Aβ:FapCS, 100 × 10^−15:10 × 10^−15 M). PBS alone and untreated larvae were used as negative controls. Zebrafish larvae were anesthetized by adding a few drops of tricaine (0.4%) in the petri dish. When larvae stopped to move in response to the tapping stimuli, the larvae were transferred to an injection template made from 1% agarose gel. Microinjection of Aβ was performed with a calibrated microneedle and pneumatic microinjection system (PV830 WPI), under a stereomicroscope. The injection pressure was set to 20 psi, the injection volume was 10 nL, and the injections were made with a micromanipulator. The tip of the needle was inserted into the ventricular space of larvae and penetration across the soft skin of dorsal tissue (central meeting point of both telencephalons) was not more than 0.3 mm. After microinjection, the larvae were transferred to the fresh Holtfreter's buffer in petri dish and incubated at 28 ± 0.5 °C for further observation.
To monitor Aβ fibrillization in the brain of zebrafish larvae, the Aβ or Aβ + FapCS injected larvae were further injected with Congo red 2 days or one week posttreatment. Congo red (100 × 10^−15 M) was injected to the cerebroventricular space of the zebrafish larvae and placed back in Holtfreter's buffer (1 h) to allow staining of Aβ plaques in the brain tissues of larvae and elimination of excess dye. Whole mount imaging of zebrafish larvae was performed via the brightfield and red fluorescence channels of a fluorescence microscope. All images were captured under the same exposure and intensity settings of the microscope. Relative red fluorescence intensities were measured from the images by using Fiji ImageJ and represented as fraction of 1. Aβ at one week was considered as a positive control (100% or fraction 1) while buffer only was considered as a negative control (0% or fraction 0).

Data set [2] concerns zebrafish larvae. The data set can be described thus: Behavioral pathology of zebrafish larvae (Zebrabox). Format: in vivo, zebrafish (AB, Danio rerio). As to conditions: 2 d postinjection, 1 h observation. The method, then: as §1, with “After microinjection, the larvae were transferred to the fresh Holtfreter's buffer in petri dish and incubated at 28 ± 0.5 °C for further observation.” left out
Behavior of zebrafish larvae was observed by an automated zebrafish behavior recording system Zebrabox (Viewpoint). […] The trajectories of the zebrafish movements were also recorded by the instrument and all behavior measurements were done in a 96‐well plate with one larva per well. […]

The test system of the next data set is adult zebrafish brain. Description: TUNEL assay in brain of adult zebrafish. Format: in vivo, zebrafish (AB, Danio rerio). The following applies: for TUNEL assay, DNA damage / cell death (in words): n = 3. The method, then:
Adult zebrafish (10 months) were employed for the study. Prior to microinjection, adult zebrafish were anesthetized by placing them in a beaker filled with ice‐chilled tricaine (0.01% in Holtfreter's buffer) for 20 s. The samples of Aβ alone and Aβ with FapCS or bacterial biofilm fragments were injected to the cerebroventricular space of adult fish with a 1 µL Hamilton glass syringe. The concentration of the Aβ peptide was 40 × 10^−6 M (in PBS, pH 7.4) while FapCS or biofilm fragments were included at a 10:1 ratio (Aβ:FapCS or biofilm fragments). The needle penetrated between left and right telencephalon for not more than 1 mm and injection volume was 1 µL. The syringe was washed with ethanol and PBS in between the injections. The injections were made under a stereomicroscope and fish were held in place with forceps. After microinjection, the fish was placed back in the water tank for recovery.
The deposition of Aβ, depletion of synaptophysin positive cells and TUNEL assay were measured by IHC. The adult fish, at 4 d or 2 weeks postinjection with Aβ and Aβ with FapCS or biofilm fragments, were euthanized by placing in ice‐chilled tricaine (0.4% in Holtfreter's buffer) for 1 min. The head of the fish was separated at pectoral fin point with a sharp blade and fixed in paraformaldehyde as described in the “Animal husbandry and ethics statement” section. The fixed heads were dehydrated by dipping in gradual concentration of ethanol, i.e., 20%, 40%, 60%, 80%, and 100% with 10 min at each step. The heads were treated with 20% sucrose overnight, mounted with Tissue Trek OCT mounting medium at −20 °C. The heads were then sectioned into […] section with a cryostat. The sections were mounted on a gelatinized glass slide and immunostained with antibodies. The sections were dried, washed thrice in PBS (pH 7.4), and TritonX‐100 (0.05% in PBS) for 5 min each. […] The sections were imaged by a fluorescence microscope and fluorescence intensities were measured from the images with Fiji ImageJ analysis.

Entries after “also recorded” stand apart in the source; their conditions may differ.

amyloid beta [Aβ]: the TEM observation result with Aβ is “prefibrillary oligomers”. The “Congo red fluorescence / Aβ fibrillization in larval brain (in words)” value in the data set on zebrafish larvae [1] is on record as “no fibrillization was observed”. In addition, the “larval swimming behavior (in words)” value in the data set with zebrafish larvae [2] is reported as “slightly lower movement frequency”. For the same molecule, the “TUNEL assay, DNA damage / cell death (in words)” value in the data set with adult zebrafish brain (2 weeks postinjection) is on record as “neuronal cell death; also recorded: DNA damage per the TUNEL assay”; in the data set with adult zebrafish brain (4 d postinjection) it was “negative TUNEL assay”.

B1: FapCS: FapC seeds obtained by sonication of mature FapC fibrils (P. aeruginosa) (protein)
chain: GNEGGWHPPKPNPQSNNKGGATALVVDTQQNYNNKVSNFGTLNNASVSGSIKDASGNVGVNVAAGDNNQQANAAALASADASFVFGTATASTSVLQSGYGNTLNNYSNPNTASLSNSANNVSGNLGVNVAAGNFNQQKNDLAAAVSNGQYSTAGSAASQTSTGNTTVNSANYAYGGTYVSLKLNADGSYKGTSDQIGDVYLDTWEGQTHPGGSNTGHIDVDSQAQGAKDLNHDGGAFAFKEKGDVDLKGTVSGFIPAIVGFKTPVTNNASLSNSLQNVSGNVGVNIAAGGGNQQSNSLSIAAGCSSCPAGGESLGF
Turning to B1, the TEM observation entry in the data set with Aβ is “appeared to adsorb onto the growing Aβ fibers”. For the same molecule, the “Congo red fluorescence / Aβ fibrillization in larval brain (in words)” value in the data set with zebrafish larvae [1] is “insignificant fluorescence was observed; also recorded: did not show any retention of Congo red fluorescence in the brain”. The “Congo red fluorescence in larval brain (in words)” value with zebrafish larvae [1] (one week postinjection, Figure S12A) is reported as “insignificant fluorescence was observed”. Further, the “larval swimming behavior (in words)” value with zebrafish larvae [2] is “significantly aggravated (**, P < 0.005) Aβ toxicity and reduced the movement frequency and total travel distance”. In addition, the “DNA damage / toxicity (in words)” value in the data set on adult zebrafish brain (FapCS alone, 4 × 10^−6 M, Figure S13) was “no DNA damage; also recorded: non‐toxic nature”.

For the origin of these results see paper PMC7509637 (Advanced Science, 2020).
